From patent publication US20140378663A1

Target: T1, CD20 antigen on Raji lymphoblastoid B cells (UniProt P11836)
T1 sequence (looked up): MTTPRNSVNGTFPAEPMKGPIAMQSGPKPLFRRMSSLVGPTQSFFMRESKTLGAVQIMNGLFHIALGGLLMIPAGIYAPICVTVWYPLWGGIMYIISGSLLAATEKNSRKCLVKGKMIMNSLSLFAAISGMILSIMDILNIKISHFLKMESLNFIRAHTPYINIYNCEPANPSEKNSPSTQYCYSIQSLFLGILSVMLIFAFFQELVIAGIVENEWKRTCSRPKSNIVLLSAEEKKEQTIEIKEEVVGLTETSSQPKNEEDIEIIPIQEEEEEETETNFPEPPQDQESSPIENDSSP
Experiment: flow cytometry on Raji cells

Ag binding MFI (Arbitrary Unit): 123
B1: R603 chimeric anti-CD20 antibody (LFB-R603), IgG1 with wild-type Fc (antibody, INN chains, looked up, V domains shown, part only)
VH: QAYLQQSGAELVRPGASVKMSCKASGYTFTSYNMHWVKQTPRQGLEWIGGIYPGNGDTSYNQKFKGKATLTVGKSSSTAYMQLSSLTSEDSAVYFCARYDYNYAMDYWGQGTSVTVSS
VL: QIVLSQSPAILSASPGEKVTMTCRASSSVSYMHWYQQKPGSSPKPWIYATSNLASGVPARFSGSGSGTSYSFTISRVEAEDAATYYCQQWTFNPPTFGGGTRLEIK
modifications: IgG1
